The values below are quoted from earlier work in paper PMC2882753.

In general, pKa refers to the pH at which an ionisable group is half protonated.

One series has as its system His134. The series can be described thus: NMR. As to conditions: 298 K; not stated (no ferricyanide present); oxidized [2Fe-2S] cluster.
The next series relates to His154. The series can be described thus: NMR. As to conditions: 298 K; not stated (no ferricyanide present); oxidized [2Fe-2S] cluster.

For “Rieske iron-sulfur protein, soluble fragment (TtRp) (Thermus thermophilus; del1-45;del202-210;W142F)”, the pKa is given as 9.24 ± 0.02 with His134 and 7.46 ± 0.02 with His154.
